The source of these data is IntAct's records for PubMed 24256567.

B1: Tyrosine-protein kinase ZAP-70 (Homo sapiens), P43403 (parent)
chain: MPDPAAHLPFFYGSISRAEAEEHLKLAGMADGLFLLRQCLRSLGGYVLSLVHDVRFHHFPIERQLNGTYAIAGGKAHCGPAELCEFYSRDPDGLPCNLRKPCNRPSGLEPQPGVFDCLRDAMVRDYVRQTWKLEGEALEQAIISQAPQVEKLIATTAHERMPWYHSSLTREEAERKLYSGAQTDGKFLLRPRKEQGTYALSLIYGKTVYHYLISQDKAGKYCIPEGTKFDTLWQLVEYLKLKADGLIYCLKEACPNSSASNASGAAAPTLPAHPSTLTHPQRRIDTLNSDGYTPEPARITSPDKPRPMPMDTSVYESPYSDPEELKDKKLFLKRDNLLIADIELGCGNFGSVRQGVYRMRKKQIDVAIKVLKQGTEKADTEEMMREAQIMHQLDNPYIVRLIGVCQAEALMLVMEMAGGGPLHKFLVGKREEIPVSNVAELLHQVSMGMKYLEEKNFVHRDLAARNVLLVNRHYAKISDFGLSKALGADDSYYTARSAGKWPLKWYAPECINFRKFSSRSDVWSYGVTMWEALSYGQKPYKKMKGPEVMAFIEQGKRMECPPECPPELYALMSDCWIYKWEDRPDFLTVEQRMRACYYSLASKVEGPPGSTQKAEAACA

In the experiment the parent is B1. The settings on record: with ubs3b_mouse Ubash3b.
For the variant Y319F, the “effect of a mutation on the interaction” value is “disrupting interaction”.
